Experimental data reported in patent US6835382B2, “Ii peptide therapeutics to enhance antigen presentation” (University of Massachusetts, priority 1996, dated 2004).
Non-standard residues stand in square brackets, D forms with d. hArg = N=C(N)NCCCC[C@H](N)C(=O)O; Cit = NC(=O)NCCC[C@H](N)C(=O)O; Orn = NCCC[C@H](N)C(=O)O

Target: T1, murine E^d MHC class II allele (Mus musculus, UniProt P01904+P01915)
T1 sequence (P01904 26-255): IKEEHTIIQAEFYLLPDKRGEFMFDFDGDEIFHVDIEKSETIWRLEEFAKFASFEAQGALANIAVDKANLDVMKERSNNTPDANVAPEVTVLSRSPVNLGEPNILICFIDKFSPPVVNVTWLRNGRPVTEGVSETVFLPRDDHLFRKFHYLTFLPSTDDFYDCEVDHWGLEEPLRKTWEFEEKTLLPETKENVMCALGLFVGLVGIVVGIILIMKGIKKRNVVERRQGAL
T1 sequence (P01915 27-264 limits assumed): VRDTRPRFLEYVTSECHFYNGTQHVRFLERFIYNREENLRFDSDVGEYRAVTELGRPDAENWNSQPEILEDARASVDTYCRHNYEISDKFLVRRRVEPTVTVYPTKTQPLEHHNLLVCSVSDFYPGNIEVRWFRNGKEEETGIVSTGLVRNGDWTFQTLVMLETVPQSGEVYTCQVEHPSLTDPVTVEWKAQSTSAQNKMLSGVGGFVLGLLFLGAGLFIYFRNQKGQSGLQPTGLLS
Experiment: antigenic peptide prepulse assay, E^d allele (fixed APC prepulsed with HEL106-116)
Format: cell-based
Design: The A20 and CH27 B cell lymphoma lines express H-2^d and H-2^k alleles, respectively; endogenous in cells; host or cells: A20 B cell lymphoma (mitomycin C-treated or paraformaldehyde-fixed)
Conditions: for Activity in antigenic peptide prepulse assay, E^d (baseline = 1): Table 23, as printed: antigenic peptide prepulse 64 μM, AE peptide 1:4 μM; for Activity in antigenic peptide prepulse assay, E^d (baseline = 1.00) / Activity in antigenic peptide prepulse assay, E^d (baseline = 1.0) / Activity in antigenic peptide prepulse assay, E^d (baseline without AE peptide = 1.00): AE peptide 64 μM; for T cell response relative to baseline without AE peptide (None = 1.0), E^d: Table 27, antigenic peptide prepulse 24 μM, AE101 series peptide 64 μM, HT-2 supernatant dilution 1:8; for Activity in antigenic peptide prepulse assay, E^d (baseline without AE peptide = 1.00): Table 19, prepulse 12 μM HEL106-116
Procedure: In a second type of assay, the “peptide prepulse assay”, the antigenic peptide is incubated with paraformaldehyde-fixed APC for 6 h. The APC are washed and incubated for 24 h with the AE101 series homolog and the T cell hybridoma specific for the antigenic peptide. After that incubation, an aliquot of the culture supernatant is transferred to a second culture to measure the relative degree of T hybridoma stimulation, as reflected in the effect of released interleukins on the growth of an interleukin-dependent, indicator cell line, as described above.
The two above described assays measure different aspects of the molecular mechanism of the AE101 series of peptides. In the “simultaneous assay”, AE101 series peptides are thought to induce the release of endogenously bound peptides and to permit the binding of the second, specific antigenic peptide which is relatively abundant in the culture fluid. The AE101 series peptides enhance antigenic peptide-specific T cell responses in simultaneous assays. In the “peptide prepulse” assay, the specific antigenic peptide becomes bound to MHC class II molecules on the surface of the fixed APC during the 6 h prepulse incubation. The effect of the AE101 series homologs is then thought to release that antigenic peptide, resulting in an apparent suppression of the immune response.
The AE101 series peptides are thought to contact the MHC class II molecules at a discrete site outside the antigenic peptide-binding groove. AE101 peptide binding to this “Ii-KEY” site is thought to induce a conformational change in the MHC class II molecules accelerating the dissociation of previously bound antigenic peptide. […] The AE101 series peptides thus inhibit antigenic peptide-specific T cell responses in the “peptide prepulse” assays.
Antigenic peptide-specific T cell activation was measured by the following procedure. Mitomycin C-treated A20 cells (A^dE^d) or CH27 cells APC (A^kE^k) were generated by incubating 5×10^6 cells/mL for 20 min at 37° C. with 0.025 mg/mL of mitomycin C (Sigma) in Dulbecco's Modified Eaglel's Medium (DMEM)/10 mM N-2(hydroxyethylpiperazine-N″[2-ethanesulfonic acid] (HEPES), followed by two washes with four volumes of DMEM-5% fetal calf serum (FCS), 10 mM HEPES. Fixed APC were generated by treating 1×10^6 cells/mL for 5 min with 0.5% paraformaldehyde in PBS (pH 7.2), followed by two washes with four volumes of DMEM-10% FCS, 10 mM HEPES. T cell hybridomas were irradiated 2200 rads before each assay.
The “peptide prepulse assay” was carried out under essentially the same conditions as described for the “simultaneous assay” with the following modifications. Fixed APC were first incubated for 6 h at 1×10^6 cells/mL in complete DMEM-5% FCS in 24-well microculture plates (1 mL/well) with antigenic peptide, followed by four washes with 10 volumes of DMEM-5% FCS. The cells were then exposed to varying concentrations of AE101 series peptide (64 μM, 16 μM, 4 μM, and 1 μM) for 24 h in the presence of the T cell hybridoma specific to the antigenic peptide. Interleukin release from these cultures was measured by proliferation of HT-2 cells to interleukins in supernatants transferred from the primary culture. Generally, a single dose of 64 μM of each AE101 series peptide was used. The baseline T cell response was measured by culturing T hybridoma cells with the antigenic peptide-prepulsed APC in the absence of AE101 series peptides.
[…] […] Paraformaldehyde-treated APC (fixed APC) expressing MHC class II molecules were incubated with antigenic peptide for 6 h (HEL106-116 for E^d and PGCC81-104 for E^k). After this incubation, the prepulsed APC were washed and cultured with T hybridoma cells and AE101 series peptides. […] The AE101 series peptide concentrations were 64 μM for E^d and 16 μM for E^k. The dilutions of supernatant taken into the HT-2 cell assay were 1:4 for Ed and 1:2 for E^k.

[1] = Table 24, prepulse 24 μM antigenic peptide, supernatant 1:4
[2] = Table 25, prepulse 24 μM antigenic peptide, supernatant 1:4
[3] = Table 22, prepulse 6 μM antigenic peptide, supernatant 1:8
[4] = Table 26, prepulse 24 μM antigenic peptide, supernatant 1:2
[5] = Table 28, prepulse 24 μM antigenic peptide, supernatant 1:4
[6] = Table 20, prepulse 3 μM antigenic peptide, supernatant 1:2

| Substance | Activity in antigenic peptide prepulse assay, E^d (baseline = 1.00) [1] | Activity in antigenic peptide prepulse assay, E^d (baseline = 1.00) [2] | also measured |
| --- | --- | --- | --- |
| Ac- (mL) RMKLPK-NH2 [AE174] | 0.60 | – | Activity in antigenic peptide prepulse assay, E^d (baseline = 1) (supernatant 1:8): 0.6 |
| Ac-ARMKLPKSAK-NH2 [AE120] | – | 0.63 | – |
| Ac-ARMKNPK-NH2 [AE345] | – | 0.61 | – |
| Ac-ARNKLPK-NH2 [AE344] | – | 0.46 | – |
| Ac-ARNKNPF-NH2 [AE347] | – | 0.64 | – |
| Ac-ARNKNPK-NH2 [AE346] | – | 0.65 | – |
| Ac-L r MKLPK-NH2 [AE161] | – | – | Activity in antigenic peptide prepulse assay, E^d (baseline = 1.00) [3]: 0.30 |
| Ac-LR (mL) KLPK-NH2 [AE302] | 0.82 | – | – |
| Ac-LR (mL) KYPK-NH2 [AE303] | 0.78 | – | – |
| Ac-LR (mL) KYPk-NH2 [AE305] | 0.72 | – | – |
| Ac-LR (mL) KyPK-NH2 [AE304] | 0.78 | – | – |
| Ac-LR (mL) KyPk-NH2 [AE306] | 0.68 | – | – |
| Ac-LR HArg KLPK-NH2 [AE197] | – | – | Activity in antigenic peptide prepulse assay, E^d (baseline = 1.0) [4]: 0.32 |
| Ac-LR L KLPK-NH2 (Ac-LRLKLPK-NH2; not fully specified; printed as Ac-LR L KLPK-NH2) [AE206] | 0.52 | 0.18 | Activity in antigenic peptide prepulse assay, E^d (baseline = 1.0) [4]: 0.38 |
| Ac-LR N KLPK-NH2 (Ac-LRNKLPK-NH2) [AE202] | – | 0.30 | – |
| Ac-LR m KLPK-NH2 [AE162] | – | – | Activity in antigenic peptide prepulse assay, E^d (baseline = 1.00) [3]: 0.28 |
| Ac-LRLK HArg PK-NH2 [AE341] | – | 0.12 | – |
| Ac-LRLKWPK-NH2 [AE309] | 0.44 | 0.48 | Activity in antigenic peptide prepulse assay, E^d (baseline = 1.0) [4]: 0.25 |
| Ac-LRLKYPK-NH2 [AE301] | 0.48 | 0.66 | Activity in antigenic peptide prepulse assay, E^d (baseline = 1.0) [4]: 0.34 |
| Ac-LRLKYPk-NH2 [AE307] | 0.59 | – | – |
| Ac-LRLKyPK-NH2 [AE308] | 0.93 | – | – |
| Ac-LRM M LPK-NH2 (Ac-LRMMLPK-NH2) [AE220] | – | – | Activity in antigenic peptide prepulse assay, E^d (baseline = 1.0) [4]: 0.73 |
| Ac-LRM k LPK-NH2 [AE163] | – | – | Activity in antigenic peptide prepulse assay, E^d (baseline = 1.00) [3]: 0.39 |
| Ac-LRMK (mL) PK-NH2 [AE175] | 0.70 | – | Activity in antigenic peptide prepulse assay, E^d (baseline = 1) (supernatant 1:8): 0.7 |
| Ac-LRMK HArg PK-NH2 (Ac-LRMK[hArg]PK-NH2; SMILES CSCC[C@H](NC(=O)[C@H](CCCNC(=N)N)NC(=O)[C@H](CC(C)C)NC(C)=O)C(=O)N[C@@H](CCCCN)C(=O)N[C@@H](CCCCNC(=N)N)C(=O)N1CCC[C@H]1C(=O)N[C@@H](CCCCN)C(N)=O) [AE227] | – | 0.28 | – |

| Substance | Activity in antigenic peptide prepulse assay, E^d (baseline = 1.00) [1] | Activity in antigenic peptide prepulse assay, E^d (baseline = 1.00) [2] | also measured |
| --- | --- | --- | --- |
| Ac-LRMK N PK-NH2 (Ac-LRMKNPK-NH2) [AE232] | – | 0.44 | – |
| Ac-LRMK Y PK-NH2 (Ac-LRMKYPK-NH2; not fully specified; printed as Ac-LRMK Y PK-NH2) [AE235] | 0.30 | 0.25 | Activity in antigenic peptide prepulse assay, E^d (baseline = 1.0) [4]: 0.23; T cell response relative to baseline without AE peptide (None = 1.0), E^d: 0.40; Activity in antigenic peptide prepulse assay, E^d (baseline = 1.0) [5]: 0.30 |
| Ac-LRMK l PK-NH2 [AE164] | 0.59 | – | Activity in antigenic peptide prepulse assay, E^d (baseline = 1.00) [3]: 0.37 |
| Ac-LRMKL p K-NH2 [AE165] | – | – | Activity in antigenic peptide prepulse assay, E^d (baseline = 1.00) [3]: 0.25 |
| Ac-LRMKLP F-NH2 (Ac-LRMKLPF-NH2) [AE248] | – | 0.63 | – |
| Ac-LRMKLP N-NH2 (Ac-LRMKLPN-NH2) [AE246] | – | – | Activity in antigenic peptide prepulse assay, E^d (baseline = 1.0) [4]: 0.69 |
| Ac-LRMKLP k-NH2 [AE166] | 0.65 | – | Activity in antigenic peptide prepulse assay, E^d (baseline = 1.00) [3]: 0.11 |
| Ac-LRMKLPK-NH2 [AE114] | 0.41 | 0.31 | Activity in antigenic peptide prepulse assay, E^d (baseline = 1.00) [3]: 0.02; Activity in antigenic peptide prepulse assay, E^d (baseline = 1) (supernatant 1:8): 0.41; Activity in antigenic peptide prepulse assay, E^d (baseline = 1.0) [4]: 0.28; T cell response relative to baseline without AE peptide (None = 1.0), E^d: 0.32; Activity in antigenic peptide prepulse assay, E^d (baseline = 1.0) [5]: 0.41 |
| Ac-LRMKLPKPPK-NH2 [AE168] | – | – | Activity in antigenic peptide prepulse assay, E^d (baseline without AE peptide = 1.00) (supernatant 1:4): 0.10 |
| Ac-LRMKLPKPPP-NH2 [AE167] | – | – | Activity in antigenic peptide prepulse assay, E^d (baseline without AE peptide = 1.00) (supernatant 1:4): 0.23 |
| Ac-LRMKLP[Cit]-NH2 [AE241] | – | – | Activity in antigenic peptide prepulse assay, E^d (baseline = 1.0) [4]: 0.70 |
| Ac-LRNKNPF-NH2 [AE348] | – | 0.39 | – |
| Ac-LRNKNPK-NH2 [AE349] | – | 0.69 | – |
| Ac-LR[Orn]KLPK-NH2 [AE195] | – | 0.41 | – |
| Ac-L[Cit]MKNPK-NH2 [AE342] | – | 0.67 | – |
| Ac-L[Cit]NKLPK-NH2 [AE343] | – | 0.55 | – |
| Ac-Y D MKLPKSAK-NH2 [AE135] | – | – | Activity in antigenic peptide prepulse assay, E^d (baseline = 1.00) [6]: 0.70 |
| Ac-Y E MKLPKSAK-NH2 [AE136] | – | – | Activity in antigenic peptide prepulse assay, E^d (baseline = 1.00) [6]: 0.54 |
| Ac-Y F MKLPKSAK-NH2 [AE139] | – | – | Activity in antigenic peptide prepulse assay, E^d (baseline = 1.00) [6]: 0.67 |
| Ac-Y H MKLPKSAK-NH2 [AE133] | – | – | Activity in antigenic peptide prepulse assay, E^d (baseline = 1.00) [6]: 0.39 |
| Ac-Y K MKLPKSAK-NH2 [AE134] | – | – | Activity in antigenic peptide prepulse assay, E^d (baseline = 1.00) [6]: 0.60; Activity in antigenic peptide prepulse assay, E^d (baseline = 1.0) [4]: 0.83 |
| Ac-Y L MKLPKSAK-NH2 [AE142] | – | – | Activity in antigenic peptide prepulse assay, E^d (baseline = 1.00) [6]: 0.86 |
| Ac-Y M MKLPKSAK-NH2 [AE141] | – | – | Activity in antigenic peptide prepulse assay, E^d (baseline = 1.00) [6]: 0.41 |
| Ac-Y N MKLPKSAK-NH2 [AE137] | – | – | Activity in antigenic peptide prepulse assay, E^d (baseline = 1.00) [6]: 0.57 |
